Residue numbers refer to the chain shown, from its start. In names and notes the source's numbering stands.
Columns and labels:
[1] = biological target: T1, canine IL-31 protein (Canine_IL31) (canine); assay: SPR (Biacore), IL-31 on chip, 1:1 fit
T1 chain: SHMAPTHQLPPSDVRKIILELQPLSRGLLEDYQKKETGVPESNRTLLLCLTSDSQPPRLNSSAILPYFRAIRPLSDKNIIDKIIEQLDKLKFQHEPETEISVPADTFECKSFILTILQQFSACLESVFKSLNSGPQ

[2] = biological target: T2, wildtype feline IL-31 protein (Feline_IL31_wildtype) (feline); assay: SPR (Biacore), IL-31 on chip, 1:1 fit
T2 construct: Full length feline IL-31 with C-terminal His tag, secreted from ExpiCHO cells; also called fIL-31
T2 chain: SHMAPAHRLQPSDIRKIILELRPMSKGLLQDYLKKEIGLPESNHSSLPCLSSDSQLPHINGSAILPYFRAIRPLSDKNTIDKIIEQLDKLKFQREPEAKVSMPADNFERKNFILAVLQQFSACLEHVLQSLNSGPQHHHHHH
Method: The affinity with which candidate mAbs bind canine and feline IL-31 was determined using surface plasmon resonance (SPR) on a Biacore system (Biocore Life Sciences (GE Healthcare), Uppsala, Sweden). To avoid affinity differences associated with differential surface preparation that can occur when immobilizing antibodies to surfaces; a strategy was employed where IL-31 was directly conjugated to the surface. Immobilization was obtained by amine coupling 5 μg/mL IL-31 using N-hydroxysuccinimide (NHS)/1-Ethyl-3-(3-dimethylaminopropyl) carbodiimide (EDC) chemistry. Chips were quenched with ethanolamine and the affinity with which all candidate mAbs bound to the immobilized IL-31 was evaluated. All curves were fit to a 1:1 model. […] Results for affinity measurements are described herein.

[3] = biological target: T2, wildtype feline IL-31 protein …; assay: Biacore, feline IL-31 chip, mAb 100 nM, share of points within parent mean +/-3 SD; parameters: key: % of mutant data points within parent mAb mean ±3 SD
From the text: The mean response unit of four replicates of the parent mAb+/−3 standard deviations was used to generate parameters to define a threshold of response units comprising both the on- and off-rates antibody binding (FIG. 22). The percentage of data points for each mutant fell within this threshold was then used to define a “% similarity score” (FIG. 23).

[4] = biological target: T2, wildtype feline IL-31 protein …; assay: cell-based or functional assay

B1: Feline_11E12 1.1_K46Q (antibody, V domains shown)
VH: QVLLVQSGAEVKKPGASVKIFCKASGYSFTYYDINWLRQAPEQGLEWMGWIFPGDGGTKYNETFKGRLTLTADTSTNTVYMELSSLRSADTAMYYCARGGTSVIRDAMDYWGQGALVTVSS
VL: EIQMTQSPSSLSASPGDRVTITCRASESVDNYGISFMHWYQQKPGQVPKLLIYRASNLESGVPSRFSGSGSGTDFTLTISSLEPEDAATYYCQQSNKDPLTFGQGTKLEIK
notes: felinized 11E12 with the single VL substitution K46Q; copies: 2 + 2
[1]
  koff: 8.85e-05 s⁻¹
  kon: 46400 M⁻¹ s⁻¹
[2]
  Kd: 12.6 nM
  koff: 0.000145 s⁻¹
  kon: 11500 M⁻¹ s⁻¹

B2: Feline 15H05 1.1 FW2 (antibody, V domains shown)
VH: QVLLVQSGAEVRTPGASVKIFCKASGYSFTSYTIHWLRQAPAQGLEWMGNINPTSGYTENNQRFKDRLTLTADTSTNTAYMELSSLRSADTAMYYCARWGFKYDGEWSFDVWGAGTTVTVSS
VL: EIQMTQSPSSLSASPGDRVTITCRASQGISIWLSWYQQKPGNIPKVLINKASNLHIGVPSRFSGSGSGTDFTLTISSLEPEDAATYYCLQSQTYPLTFGGGTKLEIK
notes: also called felinized 15H05 1.1 FW2
[1]
  koff: 1.66e-07 s⁻¹
  kon: 384000 M⁻¹ s⁻¹
[2]
  Kd: 0.065 nM
  koff: 2.49e-05 s⁻¹
  kon: 383000 M⁻¹ s⁻¹

B3: Feline 15H05 1.1 FW1_3 (antibody, V domains shown)
VH: B2 VH
VL: DIQMNQSPSSLSASLGDTITVTCRASQGISIWLSWYQQKPGKVPKLLIYKASNLHIGVPPRFSGSGSGTHFTLTITSLQPEDIATYYCLQSQTYPLTFGGGTKLEIK
notes: Printed as 'Feline 15H05 1.1 FW13'
[1]
  koff: 2.88e-08 s⁻¹
  kon: 6590 M⁻¹ s⁻¹
[2]
  Kd: 0.0674 nM
  koff: 3.02e-05 s⁻¹
  kon: 448000 M⁻¹ s⁻¹

B4: Feline 15H05 1.3 (antibody, V domains shown)
VH: B2 VH
VL: EVVLTQSSAFLSRTLKEKATITCRASQGISIWLSWYQQKPNQAPKLLVKKASNLHIGAPSRFSGSGSGTDFTLTISSPEPEDAATYYCLQSQTYPLTFGGGTKLGDQ
notes: Feline heavy and kappa constant regions
[1]
  koff: 0.00019 s⁻¹
  kon: 29700 M⁻¹ s⁻¹
[2]
  Kd: 86.4 nM
  koff: 0.00328 s⁻¹
  kon: 38000 M⁻¹ s⁻¹

B5: Feline 15H05 1.2 (antibody, V domains shown)
VH: B2 VH
VL: EITMTQSPGSLAGSPGQQVTMNCRASQGISIWLSWYQQKPGQHPKLLIYKASNLHIGVPDRFSGSGSGTDFTLTISNLQAEDVASYYCLQSQTYPLTFGGGTKLEIK
notes: as for B4
[1]
  koff: 0.000115 s⁻¹
  kon: 33000 M⁻¹ s⁻¹
[2]
  Kd: 104 nM
  koff: 0.00147 s⁻¹
  kon: 14100 M⁻¹ s⁻¹

B6: Feline 15H05 VH2 mouse VL (antibody, V domains shown)
VH: B2 VH with S28G, L37V, A40S
VL: B3 VL with K42N, V43I, L46V, Y49N, K107N
notes: also called felinized 15H05 VH2 with mouse 15H05 VL (heterochimera)
[1]
  koff: 0.000379 s⁻¹
  kon: 171000 M⁻¹ s⁻¹
[2]
  Kd: 1.61 nM
  koff: 5.47e-05 s⁻¹
  kon: 34000 M⁻¹ s⁻¹

B7: Feline 15H05 VH3 mouse VL (antibody, V domains shown)
VH: B2 VH with T13K, A42E
VL: B3 VL with K42N, V43I, L46V, Y49N, K107N
notes: Heterochimeric antibody; also called felinized 15H05 VH3 with mouse 15H05 VL (heterochimera)
[1]
  koff: 2.64e-07 s⁻¹
  kon: 100000 M⁻¹ s⁻¹
[2]
  Kd: 0.177 nM
  koff: 1.57e-05 s⁻¹
  kon: 88900 M⁻¹ s⁻¹

B8: Feline 15H05 VH1 mouse VL (antibody, V domains shown)
VH: B2 VH
VL: B3 VL with K42N, V43I, L46V, Y49N, K107N
notes: Heterochimeric antibody; also called felinized 15H05 VH1 with mouse 15H05 VL (heterochimera)
[1]
  koff: 2.66e-07 s⁻¹
  kon: 108000 M⁻¹ s⁻¹
[2]
  Kd: 0.168 nM
  koff: 2.2e-05 s⁻¹
  kon: 131000 M⁻¹ s⁻¹

B9: Feline 15H05 2.2 (antibody, V domains shown)
VH: B2 VH with S28G, L37V, A40S
VL: B5 VL
notes: as for B4
[1]
  koff: 1.09e-05 s⁻¹
  kon: 27700 M⁻¹ s⁻¹
[2]
  Kd: 2.15 nM
  koff: 0.00195 s⁻¹
  kon: 905000 M⁻¹ s⁻¹

B10: A30 (antibody, V domains shown)
VH: B2 VH with T30A
VL: B2 VL
[3]
  Binding Similarity score: 79
[4]
  % Inhibition Relative to Parent (pSTAT, FCWF-4 cells): 28.4%

B11: Feline 15H05 1.1 V43I (antibody, V domains shown)
VH: B2 VH
VL: B2 VL with N42K, V46L, N49Y
[2]
  Kd: 13.6 nM
  koff: 0.000401 s⁻¹
  kon: 29400 M⁻¹ s⁻¹

B12: Feline 15H05 1.1 K42N (antibody, V domains shown)
VH: B2 VH
VL: B2 VL with I43V, V46L, N49Y
[2]
  Kd: 6770 nM
  koff: 0.011 s⁻¹
  kon: 1630 M⁻¹ s⁻¹

B13: Feline 15H05 2.3 (antibody, V domains shown)
VH: B2 VH with S28G, L37V, A40S
VL: B4 VL
notes: as for B4
[2]
  Kd: 1.57 nM
  koff: 0.000535 s⁻¹
  kon: 341000 M⁻¹ s⁻¹

B14: Feline 15H05 3.1 (antibody, V domains shown)
VH: B2 VH with T13K, A42E
VL: B2 VL with N42K, I43V, V46L, N49Y
notes: as for B4
[1]
  koff: 2.11e-05 s⁻¹
  kon: 26500 M⁻¹ s⁻¹
[2]
  Kd: 37.1 nM
  koff: 0.00166 s⁻¹
  kon: 44700 M⁻¹ s⁻¹

B15: Feline 15H05 1.1 FW2_3 (antibody, V domains shown)
VH: B2 VH
VL: B2 VL with S60P, D70H, S76T, E79Q, A83I
[1]
  koff: 0.00193 s⁻¹
  kon: 9050 M⁻¹ s⁻¹
[2]
  Kd: 123 nM
  koff: 0.00116 s⁻¹
  kon: 9490 M⁻¹ s⁻¹

B16: Feline 15H05 2.1 (antibody, V domains shown)
VH: B2 VH with S28G, L37V, A40S
VL: B2 VL with N42K, I43V, V46L, N49Y
notes: as for B4
[1]
  koff: 0.000866 s⁻¹
  kon: 525000 M⁻¹ s⁻¹
[2]
  Kd: 22.3 nM
  koff: 0.00465 s⁻¹
  kon: 208000 M⁻¹ s⁻¹

B17: Feline 15H05 1.1 (antibody, V domains shown)
VH: B2 VH
VL: B2 VL with N42K, I43V, V46L, N49Y
notes: as for B4
[1]
  koff: 1.36e-07 s⁻¹
  kon: 27000 M⁻¹ s⁻¹
[2]
  Kd: 13.5 nM
  koff: 0.00131 s⁻¹
  kon: 97100 M⁻¹ s⁻¹

B18: Feline 15H05 3.2 (antibody, V domains shown)
VH: B2 VH with T13K, A42E
VL: B5 VL
notes: as for B4
[1]
  koff: 6.04e-06 s⁻¹
  kon: 29700 M⁻¹ s⁻¹
[2]
  Kd: 12.6 nM
  koff: 0.00166 s⁻¹
  kon: 132000 M⁻¹ s⁻¹

B19: Feline 15H05 1.1 FW1 (antibody, V domains shown)
VH: B2 VH
VL: B3 VL with P60S, H70D, T76S, Q79E, I83A
[1]
  koff: 0.0156 s⁻¹
  kon: 19200 M⁻¹ s⁻¹
[2]
  Kd: 564 nM
  koff: 0.00286 s⁻¹
  kon: 5060 M⁻¹ s⁻¹

B20: Feline 15H05 1.1 Y49N (antibody, V domains shown)
VH: B2 VH
VL: B2 VL with N42K, I43V, V46L
[2]
  Kd: 39.5 nM
  koff: 0.00095 s⁻¹
  kon: 24000 M⁻¹ s⁻¹

B21: Feline 15H05 3.3 (antibody, V domains shown)
VH: B2 VH with T13K, A42E
VL: B4 VL
notes: as for B4
[2]
  Kd: 11.6 nM
  koff: 0.000886 s⁻¹
  kon: 76300 M⁻¹ s⁻¹

B22: Feline 15H05 1.1 FW1_2 (antibody, V domains shown)
VH: B2 VH
VL: B2 VL with E1D, T5N, P15L, R18T, V19I, I21V
[1]
  koff: 3.82e-06 s⁻¹
  kon: 6910 M⁻¹ s⁻¹
[2]
  Kd: 0.887 nM
  koff: 6.7e-06 s⁻¹
  kon: 7560 M⁻¹ s⁻¹

B23: Feline 15H05 1.1 L46V (antibody, V domains shown)
VH: B2 VH
VL: B2 VL with N42K, I43V, N49Y
[2]
  Kd: 22.8 nM
  koff: 0.000811 s⁻¹
  kon: 35500 M⁻¹ s⁻¹

B24: Feline 15H05 1.1 K42N_V43I (antibody, V domains shown)
VH: B2 VH
VL: B2 VL with V46L, N49Y
[2]
  Kd: 9.42 nM
  koff: 0.0022 s⁻¹
  kon: 234000 M⁻¹ s⁻¹

B25: Feline 15H05 1.1 FW3 (antibody, V domains shown)
VH: B2 VH
VL: B3 VL with D1E, N5T, L15P, T18R, I19V, V21I
[1]
  Kd: 0.13 nM
  koff: 3.91e-07 s⁻¹
  kon: 3000 M⁻¹ s⁻¹
[2]
  Kd: 0.0564 nM
  koff: 1.21e-05 s⁻¹
  kon: 214000 M⁻¹ s⁻¹
